Reference: the supplement of paper PMC10126150
± gives the standard deviation of the averaged measurements.

System: ATP
Experiment: switch fluorescence ratio, 500 uM ATP over buffer (Cy3 cluster intensity, sum of 5 cycles each) (fold (ratio)); higher = stronger signal-on switching upon ATP binding; sequences stand for … in TCGTCGGCAGCGTCAGATGTGTATAAGAGACAGTTTTTTTTTTTTTTTTTTTTTTTTT…TC
Settings: aptamer strand: ATP DNA aptamer (quencher-CACCTGGGGGAGTATTGCGGAGGAAGG + anchor), 100 nM annealed; ATP concentration: 500 uM
In short: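 Exposure to 500 uM ATP lasted 15 min at 22 °C before imaging, and a selection-buffer image was taken beforehand, for Cy3-labelled switching-strand clusters on a modified Illumina MiSeq flow-cell annealed to 100 nM quencher-labelled ATP aptamer. Five buffer/ATP cycles were run with NaOH stripping and re-annealing between them. The fluorescence ratio per cluster is summed target-cycle over summed buffer-cycle Cy3 intensity, averaged per switch-domain sequence. Clusters outside 100-1000 RFU were excluded.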

| Sequence | switch fluorescence ratio |
| --- | --- |
| TGGTATCGGC | 0.992 ± 0.01 |
| TGCTCTGCTA | 1.683 ± 0.0023 |
| AAGGGAATAC | 2.6 ± 0.82 |
| TAGCACGCGG | 0.9748 ± 0.0041 |
| AGATGGATTT | 0.963 ± 0.0091 |
| TGGGTTATTT | 1 ± 0.038 |
| TTTTGCATTA | 1.33 ± 0.5 |
| TTTCTTTGCA | 1.058 ± 0.0081 |
| AATTCACTAA | 1.028 ± 0.0063 |
| TATCGTACAT | 1.11 ± 0.023 |
| AATGGTATGG | 0.982 ± 0.024 |
| TTGCAGGGGG | 0.998 ± 0.027 |
| TAAGGCATAG | 1.04 ± 0.044 |
| CGGTTTAATA | 1.03 ± 0.07 |
| TGGTATTTTT | 0.991 ± 0.029 |
| GAATAGAGGT | 1.02 ± 0.037 |
| GTTTTGCCTG | 0.998 ± 0.0045 |
| CCAAGCTTGT | 1 ± 0.041 |
| TCTTTTTGGG | 1.13 ± 0.16 |
| TAGAGGCAGC | 0.999 ± 0.044 |
| TGGAAGGGGT | 1.09 ± 0.14 |
| CTGGTATGGA | 0.971 ± 0.065 |
| TGCTGGATGG | 0.975 ± 0.032 |
| GGTTGTGTGT | 1 ± 0.005 |
| ACATTAGTTT | 1.013 ± 0.0056 |
| GATGTAGTAT | 0.982 ± 0.011 |

| Sequence | switch fluorescence ratio |
| --- | --- |
| ATGCCGGTAT | 0.999 ± 0.053 |
| TAGTTTATCA | 1.001 ± 0.01 |
| GTATGCTAGC | 1.004 ± 0.0086 |
| TTAGGTATTA | 0.9912 ± 0.0036 |
| AATTAGCATC | 1.06 ± 0.044 |
| TCGTTATGT | 0.97732 ± 9.1e-05 |
| ATTTATATCC | 1.02 ± 0.013 |
| AGGGAGCGAA | 1.003 ± 0.0097 |
| CATGATGAGC | 0.9668 ± 0.0079 |
| CGTGCATGAG | 1.01 ± 0.02 |
| AGTCCGGGTA | 1.08 ± 0.17 |
| TTAAAAATTG | 0.957 ± 0.016 |
| TTAAGGCCAT | 1.08 ± 0.13 |
| CTCTGGACAG | 0.9718 ± 0.0089 |
| TTGATGTAAA | 0.997 ± 0.033 |
| TAATTGGGGC | 1.02 ± 0.012 |
| AGTGCTTGAG | 0.977 ± 0.043 |
| GAGAATGGGG | 0.983 ± 0.024 |
| CACGGGTGTT | 1.32 ± 0.12 |
| CGTTCGGAGG | 0.991 ± 0.037 |
| AGGTGGTTG | 0.998 ± 0.028 |
| CATGCGAATA | 1.1 ± 0.033 |
| GGGGACTGCA | 1.03 ± 0.049 |
| AAATAAAATT | 0.982 ± 0.03 |
| GAGGCACGG | 1.0469 ± 0.00025 |
| GTTACGGCAA | 1.27 ± 0.064 |

| Sequence | switch fluorescence ratio |
| --- | --- |
| AGATAGGAGT | 1.02 ± 0.019 |
| TTGGGAATCA | 0.988 ± 0.026 |
| TCGGTCGCGG | 0.974 ± 0.028 |
| CTGAGTGTGG | 0.989 ± 0.028 |
| GTGGGGAATA | 1.03 ± 0.043 |
| AAGGGGGAGC | 0.988 ± 0.042 |
| TTTTTCTGGT | 1.01 ± 0.075 |
| CGTATAGTAG | 0.958 ± 0.02 |
| GGGGATACGT | 1 ± 0.021 |
| AGTATGAGGT | 0.98 ± 0.012 |
| ATAGTAGGTT | 1.01 ± 0.017 |
| TTTTTCAGCA | 1.04 ± 0.029 |
| ATGAGGGTTT | 1.01 ± 0.017 |
| TATCCGTGCT | 1 ± 0.029 |
| TGAGGGTCCT | 1.02 ± 0.01 |
| GTTATAGGGG | 0.99 ± 0.018 |
| GGGGCCCCTC | 1.04 ± 0.092 |
| AGGAAAGAAT | 0.968 ± 0.056 |
| TATTGGCGTC | 0.985 ± 0.029 |
| AATGGGAGGG | 1 ± 0.032 |
| GATGCATGGC | 1.12 ± 0.035 |
| TCTCTTTGTG | 1.02 ± 0.024 |
| GATTATGGCA | 0.9752 ± 0.0066 |
| TTCGGCGTTG | 0.972 ± 0.02 |
